Patent US20220396612A1 (UNIVERSIT DE TOURS, published 2022)

T1: virus-like particles (VLPs) of BK polyomavirus VP-1 protein, serotype Ia (BK virus (BKPyV), serotype Ia, UniProt P03088 1-361)
T1 construct: self-assembled native VLPs coated on ELISA plates; also called VLP Ia; BKV VP-1, serotype Ia
T1 chain: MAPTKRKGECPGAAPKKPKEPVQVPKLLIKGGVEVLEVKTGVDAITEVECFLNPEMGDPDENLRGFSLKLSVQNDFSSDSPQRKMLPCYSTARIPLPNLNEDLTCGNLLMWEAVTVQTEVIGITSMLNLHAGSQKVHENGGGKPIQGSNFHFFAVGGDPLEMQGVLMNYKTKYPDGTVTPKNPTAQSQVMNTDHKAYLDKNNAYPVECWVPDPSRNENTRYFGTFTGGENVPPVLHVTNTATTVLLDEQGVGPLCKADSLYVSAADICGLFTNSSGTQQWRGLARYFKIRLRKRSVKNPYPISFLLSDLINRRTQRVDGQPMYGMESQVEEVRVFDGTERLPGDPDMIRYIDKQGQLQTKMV

T2: virus-like particles (VLPs) of BK polyomavirus VP-1 protein, serotype Ib2 (BK virus (BKPyV), serotype Ib2, PA …, UniProt P03088 1-362)
T2 construct: native VLPs; also the immunogen; also called VLP Ib2; BK Ib2
T2 chain: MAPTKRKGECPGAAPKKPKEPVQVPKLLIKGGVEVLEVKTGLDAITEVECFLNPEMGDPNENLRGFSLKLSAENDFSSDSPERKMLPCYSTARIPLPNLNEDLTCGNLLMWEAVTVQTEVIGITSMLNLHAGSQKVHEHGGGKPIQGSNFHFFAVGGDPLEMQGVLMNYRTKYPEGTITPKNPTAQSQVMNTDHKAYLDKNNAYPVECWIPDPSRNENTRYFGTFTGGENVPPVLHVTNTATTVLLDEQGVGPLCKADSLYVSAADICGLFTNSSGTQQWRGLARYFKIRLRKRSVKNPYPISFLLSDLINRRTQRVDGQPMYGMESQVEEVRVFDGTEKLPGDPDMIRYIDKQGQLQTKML

T3: virus-like particles (VLPs) of BK polyomavirus VP-1 protein, serotype II (BK virus (BKPyV), serotype II, UniProt P14996 1-362)
T3 construct: native VLPs; also called VLP II
T3 chain: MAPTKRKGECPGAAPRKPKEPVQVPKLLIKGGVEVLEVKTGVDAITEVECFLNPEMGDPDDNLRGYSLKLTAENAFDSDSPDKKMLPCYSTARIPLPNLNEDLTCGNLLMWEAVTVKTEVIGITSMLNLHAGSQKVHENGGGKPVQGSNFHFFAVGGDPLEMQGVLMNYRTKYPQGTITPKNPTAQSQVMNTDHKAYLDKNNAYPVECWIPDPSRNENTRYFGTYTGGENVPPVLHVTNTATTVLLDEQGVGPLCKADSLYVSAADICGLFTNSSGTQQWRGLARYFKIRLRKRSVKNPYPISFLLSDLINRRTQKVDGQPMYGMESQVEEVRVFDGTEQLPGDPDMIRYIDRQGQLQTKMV

T4: virus-like particles (VLPs) of BK polyomavirus VP-1 protein, serotype IV (BK virus (BKPyV), serotype IV, UniProt P14996 1-362)
T4 construct: native VLPs; also called VLP IV
T4 chain: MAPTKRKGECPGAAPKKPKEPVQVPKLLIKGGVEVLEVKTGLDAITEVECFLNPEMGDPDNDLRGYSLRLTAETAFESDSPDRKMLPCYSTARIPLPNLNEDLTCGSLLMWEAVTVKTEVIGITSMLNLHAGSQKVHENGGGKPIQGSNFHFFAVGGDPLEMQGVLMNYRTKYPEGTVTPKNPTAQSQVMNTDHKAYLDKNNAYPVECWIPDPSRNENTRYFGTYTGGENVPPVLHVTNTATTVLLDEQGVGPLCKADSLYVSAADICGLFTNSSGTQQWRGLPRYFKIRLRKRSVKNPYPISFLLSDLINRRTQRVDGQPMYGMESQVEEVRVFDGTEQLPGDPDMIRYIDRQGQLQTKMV

B1: monoclonal antibody ‘H6’ secreted by clone BK6A2H6 (antibody, V domains shown)
VH: EVQLQQSGPELVKPGASVKISCKASGYSFTGYFMNWVKQSHGKSLEWIGRINPYNGDTFYNQKFKGKATLTVDKSSSTAHMELLSLTSEDSAVYYCGSYYYGDYFDYWGQGTTLTVSS
VL: SIVMTQIPKFLLVSEGDRVTITCKASQSVSNDVAWYQQKSGQSPKLLIYYASNRYTGVPDRFTGSGYGTDFTFTISTVQAEDLAVYFCQQDYSSPLTFGAGTKLELKR
B2: monoclonal antibody ‘F6’ secreted by clone BK6A2F6 (antibody)
heavy: EVQLQQSGPELVKPGASVKISCKASGYSFTGYFMNWVKQSHGKSLEWIGRINPYNGDTFYNQKFKGKATLTVDKSSSTAHMELLSLTSEDSAVYYCGSYYYGDYFDYWGQGTTLTVSSAKTTPPSVYPLAPGSAAQTNSMVTLGCLVKGYFPEPVTVTWNSGSLSSGVHTFPAVLQSDLYTLSSSVTVPSSTWPSETVTCNVAHPASSTKVDKKIVPRDCGCKPCICTVPEVSSVFIFPPKPKDVLTITLTPKVTCVVVDISKDDPEVQFSWFVDDVEVHTAQTQPREEQFNSTFRSVSELPIMHQDWLNGKEFKCRVNSAAFPAPIEKTISKTKGRPKAPQVYTIPPPKEQMAKDKVSLTCMITDFFPEDITVEWQWNGQPAENYKNTQPIMDTDGSYFVYSKLNVQKSNWEAGNTFTCSVLHEGLHNHHTEKSLSHSPGK
light: […]

Legend:
[1] = target: T1, virus-like particles (VLPs) of BK …; assay: ELISA on coated VLP; supernatant 1/320
Protocol: (§1) To do this, the VLPs produced were deposited at a concentration of 1 μg/mL in PBS and incubated overnight at +4° C. The wells were then blocked for 1 h at +37° C. with a PBS/FCS (phosphate-buffered saline/fetal calf serum) mixture. After dilution in a dilution buffer containing FCS, PBS and Tween® 20, the various hybridoma culture supernatants were added for 1 h at +37° C. The wells were washed four times in a row with Wash Buffer and a secondary anti-mouse antibody coupled to peroxidase was added to the 1:2000 dilution for 1 h at +37° C. The wells were washed four more times and the substrate (OPD (ortho phenylene diamine)+H₂O₂) was added for 30 min at room temperature. A stop solution (H₂SO₄ 4N) was then added and each well was read by measuring the absorbance at 492 nm with a spectrophotometer. The value obtained for the average of the control wells (PBS in the first step) is subtracted from the optical density values obtained for each well.

[2] = target: T2, virus-like particles (VLPs) of BK …; assay: ELISA on coated VLP; supernatant 1/320
Protocol: as §1

[3] = target: T3, virus-like particles (VLPs) of BK …; assay: ELISA on coated VLP; supernatant 1/320
Protocol: as §1

[4] = target: T4, virus-like particles (VLPs) of BK …; assay: ELISA on coated VLP; supernatant 1/320
Protocol: as §1

[5] = target: T1, virus-like particles (VLPs) of BK …; assay: ELISA on coated VLP; supernatant 1/1 280
Protocol: as §1

[6] = target: T2, virus-like particles (VLPs) of BK …; assay: ELISA on coated VLP; supernatant 1/1 280
Protocol: as §1

[7] = target: T3, virus-like particles (VLPs) of BK …; assay: ELISA on coated VLP; supernatant 1/1 280
Protocol: as §1

[8] = target: T4, virus-like particles (VLPs) of BK …; assay: ELISA on coated VLP; supernatant 1/1 280
Protocol: as §1

[9] = target: T1, virus-like particles (VLPs) of BK …; assay: ELISA on coated VLP; supernatant 1/5 120
Protocol: as §1

[10] = target: T2, virus-like particles (VLPs) of BK …; assay: ELISA on coated VLP; supernatant 1/5 120
Protocol: as §1

[11] = target: T3, virus-like particles (VLPs) of BK …; assay: ELISA on coated VLP; supernatant 1/5 120
Protocol: as §1

[12] = target: T4, virus-like particles (VLPs) of BK …; assay: ELISA on coated VLP; supernatant 1/5 120
Protocol: as §1

[13] = target: T4, virus-like particles (VLPs) of BK …; assay: ELISA on coated VLP; supernatant 1/20 480
Protocol: as §1

Row | Binder | OD 492 nm [1] | OD 492 nm [2] | OD 492 nm [3] | OD 492 nm [4] | OD 492 nm [5] | OD 492 nm [6] | OD 492 nm [7] | OD 492 nm [8] | OD 492 nm [9] | OD 492 nm [10] | OD 492 nm [11] | OD 492 nm [12] | OD 492 nm [13]
1 | B1 | 3.03 OD | 0.29 OD | 0.13 OD | 2.66 OD | 0.81 OD | 0.14 OD | 0.08 OD | 0.91 OD | 0.86 OD | 0.09 OD | 0.05 OD | 0.26 OD | 0.12 OD
2 | B2 | 3.16 OD | 0.29 OD | 0.16 OD | 3.16 OD | 2.11 OD | 0.11 OD | 0.09 OD | 2.04 OD | 0.57 OD | 0.08 OD | 0.07 OD | 0.77 OD | 0.26 OD
